The results in this text go back to patent US20210214410A1 (Stanford University, published 2021).

In assay [1] the target is human interleukin 13 receptor alpha 1 (IL-13Rα1), biotinylated ectodomain (human) (UniProt P78552). Briefly: SPR, kinetic fit.
For assay [2] the target is unchanged. Kind of assay: SPR (Biacore T100), biotinylated receptor on SA chip, 1:1 kinetic fit. (SPR reads the build-up and loss of mass on a sensor chip optically.)
In assay [3] the target is human interleukin 13 receptor alpha 2 (IL-13Rα2), biotinylated (human) (UniProt Q14627). Kind of assay: flow cytometry, PE-labelled mouse IgG1, live U87 cells. (In general: Flow cytometry measures light scatter and fluorescence of single cells or particles in a stream.)
For assay [4] the target is unchanged. Kind of assay: flow cytometry, PE-labelled mouse IgG1, live SKOV3 cells.
For assay [5], the target named is T1, human interleukin 13 receptor alpha 2 (IL-13Rα2), biotinylated (human, UniProt Q14627 27-343, limits assumed, biotinylated (site not stated)).
T1 construct: The methods give construct limits only for IL-13Rα1 and IL-4Rα1; For IL-13Rα2 they say only that the biotinylated receptor was captured on the SA chip; also called IL13RA2; CD213a2
T1 sequence (looked up): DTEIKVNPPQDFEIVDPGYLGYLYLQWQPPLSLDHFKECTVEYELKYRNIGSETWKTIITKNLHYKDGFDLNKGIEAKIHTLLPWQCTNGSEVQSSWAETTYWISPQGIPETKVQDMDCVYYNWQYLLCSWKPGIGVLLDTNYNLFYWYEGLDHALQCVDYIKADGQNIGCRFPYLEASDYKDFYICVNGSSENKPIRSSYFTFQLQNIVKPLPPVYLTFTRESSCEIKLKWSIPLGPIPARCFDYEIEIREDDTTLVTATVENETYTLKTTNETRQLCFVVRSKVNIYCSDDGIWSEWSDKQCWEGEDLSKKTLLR
Kind of assay: SPR (Biacore T100), biotinylated receptor on SA chip, 1:1 kinetic fit. The procedure: (§1) Surface Plasmon Resonance. SPR experiments were conducted on a Biacore T100 instrument. Experiments used a Biacore SA sensor chip (GE Healthcare). Biotinylated IL-13Rα1 and IL-13Rα2 receptors were captured at a low density (100-200 RU) and kinetic runs were conducted at 40 μL/min. An unrelated biotinylated protein was immobilized as a reference surface for the SA sensor chip with matching RU to the experimental surface. All data was analyzed using the Biacore T100 evaluation software version 2.0 with a 1:1 Langmuir binding model. Serial dilutions of unbiotinylated IL-13 variants in the running buffer [1×HBS-P (GE Healthcare)+0.5% BSA] were flowed over the chip and IL-13Rα1/IL-13Rα2 were regenerated by using one 60 second injections of 7 mM glycine (pH 3.0).

Assay [6] concerns the target human interleukin 13 receptor alpha 1 (IL-13Rα1), biotinylated ectodomain (human) (UniProt P78552). Briefly: SPR (Biacore T100), biotinylated receptor on SA chip, equilibrium KD.
In assay [7] the target is T1, human interleukin 13 receptor alpha 2 …. Described as above. Here is the method:
as §1

Assay [8] has the same target. Briefly: SPR, kinetic fit. The procedure:
as §1

Substitutions are numbered along the chain they refer to. In names and notes the source's numbering stands.

In general, Kd refers to the constant that tells how readily two partners part at equilibrium. A higher Kd goes with lower affinity. As a reminder, the koff is the rate constant with which the complex falls apart. For orientation: kon means a measure of how fast the partners come together. Read a high kon as faster complex formation. In assay [1], “wild-type human IL-13 (from UniProt P35225 34-146) (ligand)” came in with a dissociation constant Kd of 4.38 nM, a koff of 0.022 s⁻¹ and an on-rate constant (kon) of 5.21e+06 M⁻¹ s⁻¹. Also, in assay [2], the dissociation constant Kd amounted to 4.38 nM, the dissociation rate constant (koff) was found to be 0.022 s⁻¹ and the kon was determined as 5.21e+06 M⁻¹ s⁻¹.

As for Isotype Control (antibody), the results for the % of cells in the PE gate in assay [3] and in assay [4] were 0.035% and 0.042%, respectively.

B1: IL-13 variant C4 (L10V, K89R, L101N, K105E, R108T) (ligand)
chain: PGPVPPSTAVRELIEELVNITQNQKAPLCNGSMVWSINLTAGMYCAALESLINVSGCSAIEKTQRMLSGFCPHKVSAGQFSSLHVRDTRIEVAQFVKDLLNHLKELFTEGQFNHHHHHH
notes: the first is used here; also called polypeptide C4
On to B1, for which, in assay [5], the Kd is 0.393 nM, the off-rate (koff) came to 0.000764 s⁻¹ and the kon worked out at 1.94e+06 M⁻¹ s⁻¹. The equilibrium dissociation constant (Kd) in assay [6] stood at 36000 nM.

B2: IL-13 variant D7 (IL-13Rα2-selective IL-13 superkine; L10A, V18F, R86K, D87K, K89R, L101I, K104R, R108K) (ligand)
chain: B1 chain with V10A, V18F, Q64K, S81P, R86K, D87K, N101I, K104R, E105K, T108K
notes: the first is used here; also called polypeptide D7
B2: in assay [5], the Kd stood at 0.003 nM, the koff worked out at 5.37e-05 s⁻¹ and the kon came out at 1.77e+07 M⁻¹ s⁻¹. In assay [6], this molecule yielded a Kd of 4100 nM.

B3: IL-13 variant C11 (IL-13Rα2-selective IL-13 superkine; L10H, R86T, D87G, T88R, R108K) (ligand)
chain: B1 chain with V10H, R86T, D87G, T88R, R89K, N101L, E105K, T108K
notes: the first is used here; Made in insect Hi5 cells; also called polypeptide C11
In assay [5], B3 registered an equilibrium dissociation constant (Kd) of 0.0001 nM, a koff of 9.18e-07 s⁻¹ and a kon of 6.41e+06 M⁻¹ s⁻¹. Moreover, the Kd in assay [6] came out at 1600 nM.

B4: IL-13 variant B4 (R11S, V18I, R86K, D87G, T88S, K89M, L101Y, K104R, K105T) (ligand)
chain: PGPVPPSTALSELIEELINITQNQKAPLCNGSMVWSINPTAGMYCAALESLINVSGCSAIEKTQRMLSGFCPHKVAAGQFSSLHDKGSMIEVAQFVKDLLYHLRTLFREGQFNHHHHHH
notes: also called polypeptide B4
With B4, in assay [2], the dissociation constant (Kd) came to 18 nM, the koff amounted to 0.024 s⁻¹ and the kon amounted to 1.36e+06 M⁻¹ s⁻¹. This molecule also registered a dissociation constant (Kd) in assay [7] of 108 nM.

B5: A7 (ligand)
cytokine: PGPVPPSTAIRELIEELINITQNQKAPLCNGSMVWSINLTAGMYCAALESLINVSGCSAIEKTQRMLSGFCPHKVSAGQFSSLHVRGSKIEVAQFVKDLLHHLRALFREGQFN
notes: also called IL-13 variant A7 (L10I, V18I, D87G, T88S, L101H, K104R, K105A)
In assay [2], B5 had a Kd of 1.18 nM, a koff of 0.0034 s⁻¹ and an on-rate constant (kon) of 2.9e+06 M⁻¹ s⁻¹. In assay [5], the Kd amounted to 0.218 nM, the koff was 0.0041 s⁻¹ and the kon came out at 1.8e+07 M⁻¹ s⁻¹.

B6: C9 (ligand)
cytokine: B5 cytokine with I10H, R11L, R86K, G87E, S88T, K89R, H101N, R104K, A105T, R108K
notes: also called IL-13 variant C9 (L10H, R11L, V18I, R86K, D87E, K89R, L101N, K105T, R108K)
Turning to B6, in assay [5], binding was characterised by a dissociation constant (Kd) of 0.259 nM, the off-rate constant (koff) was determined as 0.000529 s⁻¹ and the kon stood at 2.03e+06 M⁻¹ s⁻¹. This molecule also displayed a Kd in assay [6] of 31000 nM.

B7: B2 (ligand)
cytokine: B5 cytokine with I10L, R86T, H101Y
notes: also called IL-13 variant B2 (V18I, R86T, D87G, T88S, L101Y, K104R, K105A)
With B7, in assay [2], the Kd worked out at 0.275 nM, the off-rate constant (koff) was 0.0017 s⁻¹ and the association rate constant (kon) stood at 6.3e+06 M⁻¹ s⁻¹. For the same molecule, in assay [5], the affinity, expressed as Kd, was 1.5 nM; the off-rate constant (koff) worked out at 0.01 s⁻¹; the kon is 7.8e+06 M⁻¹ s⁻¹.

B8: A11 (ligand)
cytokine: B5 cytokine with I10V, G87S, H101F, A105T
notes: also called IL-13 variant A11 (L10V, V18I, D87S, T88S, L101F, K104R, K105T)
In assay [2], B8 gave a Kd of 0.084 nM, a koff of 0.0013 s⁻¹ and a kon of 1.64e+07 M⁻¹ s⁻¹. In assay [5], this molecule displayed an equilibrium dissociation constant (Kd) of 0.391 nM, a koff of 0.006 s⁻¹ and a kon of 1.62e+07 M⁻¹ s⁻¹.

B9: C12 (ligand)
cytokine: B5 cytokine with I10H, I18V, R86M, G87D, K89R, H101N, R108K
notes: also called IL-13 variant C12 (L10H, R86M, T88S, K89R, L101N, K104R, K105A, R108K)
Regarding B9, in assay [5], the Kd was 0.053 nM, the koff stood at 0.000404 s⁻¹ and the on-rate (kon) stood at 7.61e+06 M⁻¹ s⁻¹. Moreover, in assay [6], the dissociation constant Kd is 15000 nM.

B10: B6 (ligand)
cytokine: B5 cytokine with I10T, H101Y, A105T
notes: the sheet prints K at position 89 (same as wild type); also called IL-13 variant B6 (L10T, V18I, D87G, T88S, L101Y, K104R, K105T)
On to B10, for which, in assay [2], the Kd stood at 5.9 nM, the koff stood at 0.0082 s⁻¹ and the association rate constant (kon) turned out to be 1.4e+06 M⁻¹ s⁻¹. The same molecule registered an equilibrium dissociation constant (Kd) in assay [7] of 53 nM.

B11: A8 (ligand)
cytokine: B5 cytokine with G87S, K89R, A105T
notes: also called IL-13 variant A8 (L10I, V18I, D87S, T88S, K89R, L101H, K104R, K105T)
In assay [2], B11 showed a Kd of 2.06 nM, a koff of 0.0033 s⁻¹ and an on-rate constant (kon) of 1.64e+06 M⁻¹ s⁻¹. Further, in assay [5], the Kd worked out at 0.263 nM, the koff amounted to 0.0026 s⁻¹ and the association rate constant (kon) is 1.01e+07 M⁻¹ s⁻¹.

B12: A6 (ligand)
cytokine: B5 cytokine with I18L, R86M, G87K
notes: also called IL-13 variant A6 (L10I, V18L, R86M, D87K, T88S, L101H, K104R, K105A)
As for B12, in assay [2], the Kd was determined as 1.9 nM, the off-rate (koff) was determined as 0.0033 s⁻¹ and the kon turned out to be 1.77e+06 M⁻¹ s⁻¹. In assay [5], this molecule had a dissociation constant (Kd) of 0.267 nM, a koff of 0.0028 s⁻¹ and an on-rate (kon) of 1.07e+07 M⁻¹ s⁻¹.

B13: C10 (ligand)
cytokine: B5 cytokine with I10H, R11L, R86M, G87D, S88T, K89R, H101L, R104K, A105K, R108K
notes: also called IL-13 variant C10 (L10H, R11L, V18I, R86M, K89R, R108K)
For B13, in assay [5], binding was characterised by a dissociation constant (Kd) of 5 nM, the off-rate (koff) stood at 0.0061 s⁻¹ and the kon is 1.19e+06 M⁻¹ s⁻¹. This molecule displayed a Kd in assay [6] of 264 nM.

B14: C2 (ligand)
cytokine: B5 cytokine with I10D, R11I, R86K, G87K, S88T, K89R, H101L, R104K, A105K, R108K
notes: also called IL-13 variant C2 (L10D, R11I, V18I, R86K, D87K, K89R, R108K)
As for B14, in assay [5], the dissociation constant (Kd) amounted to 0.025 nM, the off-rate (koff) came to 0.00015 s⁻¹ and the kon is 6.6e+06 M⁻¹ s⁻¹. Further, the dissociation constant (Kd) in assay [6] is 4000 nM.

B15: C3 (ligand)
cytokine: B5 cytokine with I10A, I18V, R86T, S88K, K89R, H101N, R108K
notes: also called IL-13 variant C3 (L10A, R86T, D87G, T88K, K89R, L101N, K104R, K105A, R108K)
For B15, in assay [5], the equilibrium dissociation constant (Kd) amounted to 0.379 nM, the koff worked out at 0.002 s⁻¹ and the kon is 6e+06 M⁻¹ s⁻¹. Also, in assay [6], the Kd stood at 16000 nM.

B16: A5 (ligand)
cytokine: B5 cytokine with I10L, R11I, R86K, F107M
notes: also called IL-13 variant A5 (R11I, V18I, R86K, D87G, T88S, L101H, K104R, K105A, F107M)
B16: in assay [2], the equilibrium dissociation constant (Kd) was determined as 2.94 nM, the koff was found to be 0.0082 s⁻¹ and the kon amounted to 2.8e+06 M⁻¹ s⁻¹. Moreover, the Kd in assay [7] is 50 nM.

B17: IL-13dn (ligand)
cytokine: B5 cytokine with I10V, E12A, R65D, G87S, H101F, A105T
notes: also called IL13dn (L10V, E12A, V18I, R65D, D87S, T88S, L101F, K104R, K105T)
In assay [1], B17 displayed a Kd of 0.084 nM, a koff of 0.0013 s⁻¹ and an on-rate (kon) of 1.64e+07 M⁻¹ s⁻¹. In assay [8], this molecule came in with a dissociation constant (Kd) of 0.391 nM, an off-rate (koff) of 0.006 s⁻¹ and a kon of 1.62e+07 M⁻¹ s⁻¹.

B18: C7 (ligand)
cytokine: B5 cytokine with I10L, R11S, I14M, I18V, G87D, H101N, R104K, R108K
notes: also called IL-13 variant C7 (R11S, I14M, T88S, L101N, K105A, R108K)
In assay [5], B18 yielded a Kd of 0.272 nM, an off-rate (koff) of 0.00057 s⁻¹ and an association rate constant (kon) of 2.1e+06 M⁻¹ s⁻¹. Further, in assay [6], the Kd was 35000 nM.
